Laboratory results reported in PMC5148762.

Target: protein G B1
Assay: quartz crystal microbalance with dissipation monitoring (QCM-D); protein G B1 adsorbed from 5 ug/ml in PBS onto polystyrene-coated gold quartz sensors, rinsed, then IgG flowed at 5 ug/ml in PBS, 150 ul/min, pH 7.4, 22 °C; mass by the Sauerbrey equation

Sauerbrey mass bound: 350 ng/cm^2
Substance: IgG antibody
